B1: SEQ ID NO 4: Segniliparus rugosus carboxylate reductase, Genbank Accession No. EFV11917.1 (protein, listed as Segniliparus rugosus)
chain: MGDGEERAKRFFQRIGELSATDPQFAAAAPDPAVVEAVSDPSLSFTRYLDTLMRGYAERPALAHRVGAGYETISYGELWARVGAIAAAWQADGLAPGDFVATVGFTSPDYVAVDLAAARSGLVSVPLQAGASLAQLVGILEETEPKVLAASASSLEGAVACALAAPSVQRLVVFDLRGPDASESAADERRGALADAEEQLARAGRAVVVETLADLAARGEALPEAPLFEPAEGEDPLALLIYTSGSTGAPKGAMYSQRLVSQLWGRTPVVPGMPNISLHYMPLSHSYGRAVLAGALSAGGTAHFTANSDLSTLFEDIALARPTFLALVPRVCEMLFQESQRGQDVAELRERVLGGRLLVAVCGSAPLSPEMRAFMEEVLGFPLLDGYGSTEALGVMRNGIIQRPPVIDYKLVDVPELGYRTTDKPYPRGELCIRSTSLISGYYKRPEITAEVFDAQGYYKTGDVMAEIAPDHLVYVDRSKNVLKLSQGEFVAVAKLEAAYGTSPYVKQIFVYGNSERSFLLAVVVPNAEVLGARDQEEAKPLIAASLQKIAKEAGLQSYEVPRDFLIETEPFTTQNGLLSEVGKLLRPKLKARYGEALEARYDEIAHGQADELRALRDGAGQRPVVETVVRAAVAISGSEGAEVGPEANFADLGGDSLSALSLANLLHDVFEVEVPVRIIIGPTASLAGIAKHIEAERAGASAPTAASVHGAGATRIRASELTLEKFLPEDLLAAAKGLPAADQVRTVLLTGANGWLGRFLALEQLERLARSGQDGGKLICLVRGKDAAAARRRIEETLGTDPALAARFAELAEGRLEVVPGDVGEPKFGLDDAAWDRLAEEVDVIVHPAALVNHVLPYHQLFGPNVVGTAEIIRLAITAKRKPVTYLSTVAVAAGVEPSSFEEDGDIRAVVPERPLGDGYANGYGNSKWAGEVLLREAHELVGLPVAVFRSDMILAHTRYTGQLNVPDQFTRLVLSLLATGIAPKSFYQQGAAGERQRAHYDGIPVDFTAEAITTLGAEPSWFDGGAGFRSFDVFNPHHDGVGLDEFVDWLIEAGHPISRIDDHKEWFARFETAVRGLPEAQRQHSLLPLLRAYSFPHPPVDGSVYPTGKFQGAVKAAQVGSDHDVPHLGKALIVKYADDLKALGLL
B2: gene product of tesB: Escherichia coli thioesterase encoded by tesB, GenBank Accession No. AAA24665.1 (protein, listed as Escherichia coli)
chain: MSQALKNLLTLLNLEKIEEGLFRGQSEDLGLRQVFGGQVVGQALYAAKETVPEERLVHSFHSYFLRPGDSKKPIIYDVETLRDGNSFSARRVAAIQNGKPIFYMTASFQAPEAGFEHQKTMPSAPAPDGLPSETQIAQSLAHLLPPVLKDKFICDRPLEVRPVEFHNPLKGHVAEPHRQVWIRANGSVPDDLRVHQYLLGYASDLNFLPVALQPHGIGFLEPGIQIATIDHSMWFHRPFNLNEWLLYSVESTSASSARGFVRGEFYTQDGVLVASTVQEGVMRNHN
B3: SEQ ID NO 7: Segniliparus rotundus carboxylate reductase, Genbank Accession No. ADG98140.1 (protein, listed as Segniliparus rotundus)
chain: MTQSHTQGPQASAAHSRLARRAAELLATDPQAAATLPDPEVVRQATRPGLRLAERVDAILSGYADRPALGQRSFQTVKDPITGRSSVELLPTFDTITYRELRERATAIASDLAHHPQAPAKPGDFLASIGFISVDYVAIDIAGVFAGLTAVPLQTGATLATLTAITAETAPTLFAASIEHLPTAVDAVLATPSVRRLLVFDYRAGSDEDREAVEAAKRKIADAGSSVLVDVLDEVIARGKSAPKAPLPPATDAGDDSLSLLIYTSGSTGTPKGAMYPERNVAHFWGGVWAAAFDEDAAPPVPAINITFLPLSHVASRLSLMPTLARGGLMHFVAKSDLSTLFEDLKLARPTNLFLVPRVVEMLYQHYQSELDRRGVQDGTREAEAVKDDLRTGLLGGRILTAGFGSAPLSAELAGFIESLLQIHLVDGYGSTEAGPVWRDGYLVKPPVTDYKLIDVPELGYFSTDSPHPRGELAIKTQTILPGYYKRPETTAEVFDEDGFYLTGDVVAQIGPEQFAYVDRRKNVLKLSQGEFVTLAKLEAAYSSSPLVRQLFVYGSSERSYLLAVIVPTPDALKKFGVGEAAKAALGESLQKIARDEGLQSYEVPRDFIIETDPFTVENGLLSDARKSLRPKLKEHYGERLEAMYKELADGQANELRDIRRGVQQRPTLETVRRAAAAMLGASAAEIKPDAHFTDLGGDSLSALTFSNFLHDLFEVDVPVGVIVSAANTLGSVAEHIDAQLAGGRARPTFATVHGKGSTTIKASDLTLDKFIDEQTLEAAKHLPKPADPPRTVLLTGANGWLGRFLALEWLERLAPAGGKLITIVRGKDAAQAKARLDAAYESGDPKLAGHYQDLAATTLEVLAGDFSEPRLGLDEATWNRLADEVDFISHPGALVNHVLPYNQLFGPNVAGVAEIIKLAITTRIKPVTYLSTVAVAAGVEPSALDEDGDIRTVSAERSVDEGYANGYGNSKWGGEVLLREAHDRTGLPVRVFRSDMILAHQKYTGQVNATDQFTRLVQSLLATGLAPKSFYELDAQGNRQRAHYDGIPVDFTAESITTLGGDGLEGYRSYNVFNPHRDGVGLDEFVDWLIEAGHPITRIDDYDQWLSRFETSLRGLPESKRQASVLPLLHAFARPGPAVDGSPFRNTVFRTDVQKAKIGAEHDIPHLGKALVLKYADDIKQLGLL

How the values were obtained:
Type in all cases: biochemical
[1] = Carboxylate reductase activity assay, pimelate to pimelate semialdehyde (NADPH consumption); conditions: 2 mM pimelate, enhanced by gene product of sfp, room temperature, 20 min, against empty vector control, FIG. 10
Description: A sequence encoding a HIS-tag was added to the genes from Segniliparus rugosus and Segniliparus rotundus that encode the carboxylate reductases of SEQ ID NOs: 4 and 7, respectively (see FIG. 7), such that N-terminal HIS tagged carboxylate reductases could be produced. Each of the modified genes was cloned into a pET Duet expression vector along with a sfp gene encoding a HIS-tagged phosphopantetheine transferase from Bacillus subtilis, both under the T7 promoter. Each expression vector was transformed into a BL21[DE3] E. coli host and the resulting recombinant E. coli strains were cultivated at 37° C. in a 250 mL shake flask culture containing 50 mL LB media and antibiotic selection pressure, with shaking at 230 rpm. Each culture was induced overnight at 37° C. using an auto-induction media.
The pellet from each induced shake flask culture was harvested via centrifugation. Each pellet was resuspended and lysed via sonication, and the cell debris was separated from the supernatant via centrifugation. […]
Enzyme activity assays (i.e., from pimelate to pimelate semialdehyde) were performed in triplicate in a buffer composed of a final concentration of 50 mM HEPES buffer (pH=7.5), 2 mM pimelate, 10 mM MgCl2, 1 mM ATP and 1 mM NADPH. […] The consumption of NADPH was monitored by absorbance at 340 nm.

[2] = Thioesterase enzyme activity assay, pimeloyl-CoA to pimelate (release of CoA, Ellman's reagent); conditions: 667 μM pimeloyl-CoA, 0.8 μM enzyme, pH 7.4, 37° C., 20 min, relative to empty vector control, FIG. 8
Description: A sequence encoding an N-terminal His tag was added to the tesB gene from Escherichia coli that encodes a thioesterase (SEQ ID NO 1, see FIG. 7), such that an N-terminal HIS tagged thioesterase could be produced. The modified tesB gene was cloned into a pET15b expression vector under control of the T7 promoter. The expression vector was transformed into a BL21[DE3] E. coli host. The resulting recombinant E. coli strain was cultivated at 37° C. in a 500 mL shake flask culture containing 50 mL Luria Broth (LB) media and antibiotic selection pressure, with shaking at 230 rpm. The culture was induced overnight at 17° C. using 0.5 mM IPTG.
The pellet from the induced shake flask culture was harvested via centrifugation. The pellet was resuspended and lysed in Y-Per™ solution (ThermoScientific, Rockford, Ill.). The cell debris was separated from the supernatant via centrifugation. […]
The enzyme activity assay was performed in triplicate in a buffer composed of 50 mM phosphate buffer (pH=7.4), 0.1 mM Ellman's reagent, and 667 μM of pimeloyl-CoA (as substrate). […] The release of Coenzyme A was monitored by absorbance at 412 nm. The absorbance associated with the substrate only control, which contained boiled enzyme, was subtracted from the active enzyme assay absorbance and compared to the empty vector control.

[3] = Carboxylate reductase activity assay, N7-acetyl-7-aminoheptanoate to N7-acetyl-7-aminoheptanal (NADPH consumption); conditions: 2 mM N7-acetyl-7-aminoheptanoate, enhanced by gene product of sfp, room temperature, 20 min, against empty vector control, FIG. 12
Description: The activity of each of the N-terminal His-tagged carboxylate reductases of SEQ ID NOs: 3, 6, and 7 (see Examples 4, and FIG. 7) for converting N7-acetyl-7-aminoheptanoate to N7-acetyl-7-aminoheptanal was assayed in triplicate in a buffer composed of a final concentration of 50 mM HEPES buffer (pH=7.5), 2 mM N7-acetyl-7-aminoheptanoate, 10 mM MgCl2, 1 mM ATP, and 1 mM NADPH. The assays were initiated by adding purified carboxylate reductase and phosphopantetheine transferase or the empty vector control to the assay buffer containing the N7-acetyl-7-aminoheptanoate then incubated at room temperature for 20 min. The consumption of NADPH was monitored by absorbance at 340 nm.

[4] = Carboxylate reductase activity assay, pimelate semialdehyde to heptanedial (NADPH consumption); conditions: 2 mM pimelate semialdehyde, enhanced by gene product of sfp, room temperature, 20 min, against empty vector control, FIG. 13
Description: The N-terminal His-tagged carboxylate reductase of SEQ ID NO 7 (see Example 4 and FIG. 7) was assayed using pimelate semialdehyde as substrate. The enzyme activity assay was performed in triplicate in a buffer composed of a final concentration of 50 mM HEPES buffer (pH=7.5), 2 mM pimelate semialdehyde, 10 mM MgCl2, 1 mM ATP and 1 mM NADPH. The enzyme activity assay reaction was initiated by adding purified carboxylate reductase and phosphopantetheine transferase or the empty vector control to the assay buffer containing the pimelate semialdehyde and then incubated at room temperature for 20 min. The consumption of NADPH was monitored by absorbance at 340 nm.

Molecule	carboxylate reductase activity for converting pimelate to pimelate semialdehyde (NADPH consumption, absorbance at 340 nm) [1]	thioesterase activity for converting pimeloyl-CoA to pimelate (released CoA, absorbance at 412 nm) [2]	carboxylate reductase activity for converting N7-acetyl-7-aminoheptanoate to N7-acetyl-7-aminoheptanal (NADPH consumption, absorbance at 340 nm) [3]	carboxylate reductase activity for converting pimelate semialdehyde to heptanedial (NADPH consumption, absorbance at 340 nm) [4]
B1	accepted pimelate as substrate			
B2		accepted pimeloyl-CoA as substrate		
B3	accepted pimelate as substrate		accepted N7-acetyl-7-aminoheptanoate as substrate	accepted pimelate semialdehyde as substrate

From patent US9580731B2, “Methods of producing 7-carbon chemicals via c1 carbon chain elongation associated with coenzyme B synthesis” (INVISTA North America S.á r.l., priority 2012, dated 2017)
